Source: PMC9993454

Biological target: CD16a on NK cells of cynomolgus monkey peripheral blood (cynomolgus monkey (endogenous on NK cells of peripheral blood)) (UniProt Q8SPW2)
Assay: flow cytometry on cells; cynomolgus monkeys given HpmAb1/D1632 (0.5-20 mg/kg s.c., day 0) or IVIG (1 g/kg i.v., days 0 and 1) and anti-platelet antibody on day 1; blood NK cells (CD45+CD14-CD159a+) stained with Fc-competing anti-CD16 3G8 (unoccupied CD16a) and non-competing DJ130c (all CD16a); free ratio and receptor occupancy (RO) against baseline (day 0)

UniProt Q8SPW2, sequence (Q8SPW2 17-254): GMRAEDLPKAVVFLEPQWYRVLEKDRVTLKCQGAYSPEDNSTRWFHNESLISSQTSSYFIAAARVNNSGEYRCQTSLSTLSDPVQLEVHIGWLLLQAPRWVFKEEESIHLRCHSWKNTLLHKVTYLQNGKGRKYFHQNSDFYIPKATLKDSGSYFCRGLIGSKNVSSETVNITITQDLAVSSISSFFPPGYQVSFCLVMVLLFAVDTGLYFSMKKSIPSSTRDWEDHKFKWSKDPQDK

Work on “Intravenous immunoglobulin (IVIG) (antibody)” yielded a free ratio (unoccupied CD16a on NK cells, % of baseline) on day 1 of 40.3%.
